Two molecules from article PMC3678023 (Journal of Molecular Biology, 2013) can be followed below.

Series [1] concerns thermostabilised SERT mutants SAH6 and SAH7. In words: Competition binding, statements covering both thermostabilised mutants. The arrangement: species or system rat. To be noted: over SAH6 and SAH7.
Experimental: The samples were incubated for 2 h at 30 °C and then filtered on 96-well glass fibre plates (Millipore) pre-treated with 200 μl of 0.1% polyethyleneimine. The filters were washed three times with 200 μl ice-cold SERT buffer [100 mM NaCl and 20 mM Tris (pH 7.4)], dried for 1 h at 50 °C prior to liquid scintillation counting. Competition binding assays were performed as above, but a range of concentrations of unlabelled ligand was included and a final concentration of 0.2 nM [^125I]RTI55 was used.
The procedure of series [2]:
Thermostability assays usually involved adding the radioligand to detergent-solubilised membrane proteins,[9] but the only detergent that SERT was stable in was digitonin,[34] which is unsuitable for crystallography. Therefore, a different assay where an inhibitor was used to stabilise the transporter was developed. This entailed adding [^125I]RTI55 to the T-REx-SERT cells followed by detergent solubilisation and then the thermostability assay (heating samples at various temperatures for 30 min). The apparent Tm was defined as the temperature where 50% of the transporter still bound the radiolabelled inhibitor (Fig. S2).
The thermostability of detergent-solubilised [^125I]RTI55-bound SERT was determined as previously described for GPCRs.[5,6,8,9] Briefly, cells containing unpurified SERT were incubated with 1 nM [^125I]RTI55 for 30 min on ice, which were then solubilised with detergent on ice for 30 min before incubation at varying temperatures for 30 min. The radioligand bound to the membrane protein was separated from free radioligand by centrifugal gel filtration and the radioligand bound to the eluted transporter measured by liquid scintillation counting.

For series [3], the system named is T-REx-293 cells expressing SAH6-GFP, SAH7-GFP or SERT-GFP. In words: [3H]5HT uptake assay in stable T-REx cell lines. It counts as cell-based. Conditions: tetracycline-induced stable cell lines, 2 μM [3H]5HT, 25 °C, 3 min. An excerpt: [^3H]5HT was released by rupturing the cells with 2% SDS, which was quantified by liquid scintillation counting.

For the molecule ibogaine, the “Lower affinity versus wild-type transporter” value in series [1] is listed as “up to 90 fold”.

B1: wild-type SERT: rat serotonin transporter, wild type (protein, UniProt P31652 1-630, looked up)
Sodium-dependent serotonin …: METTPLNSQKVLSECKDREDCQENGVLQKGVPTTADRAEPSQISNGYSAVPSTSAGDEASHSIPAATTTLVAEIRQGERETWGKKMDFLLSVIGYAVDLGNIWRFPYICYQNGGGAFLLPYTIMAIFGGIPLFYMELALGQYHRNGCISIWRKICPIFKGIGYAICIIAFYIASYYNTIIAWALYYLISSLTDRLPWTSCTNSWNTGNCTNYFAQDNITWTLHSTSPAEEFYLRHVLQIHQSKGLQDLGTISWQLTLCIVLIFTVIYFSIWKGVKTSGKVVWVTATFPYIVLSVLLVRGATLPGAWRGVVFYLKPNWQKLLETGVWVDAAAQIFFSLGPGFGVLLAFASYNKFNNNCYQDALVTSVVNCMTSFVSGFVIFTVLGYMAEMRNEDVSEVAKDAGPSLLFITYAEAIANMPASTFFAIIFFLMLITLGLDSTFAGLEGVITAVLDEFPHIWAKRREWFVLIVVITCVLGSLLTLTSGGAYVVTLLEEYATGPAVLTVALIEAVAVSWFYGITQFCSDVKEMLGFSPGWFWRICWVAISPLFLLFIICSFLMSPPQLRLFQYNYPHWSIVLGYCIGMSSVICIPTYIIYRLISTPGTLKERIIKSITPETPTEIPCGDIRMNAV
Take B1: the “Apparent Tm” value in series [2] ([125I]RTI55-bound, solubilised in 0.1% DDM, heated 30 min) is 28 °C. For the same molecule, in series [2] (single-temperature assay, 28 °C for 30 min), the “Transporter remaining functional after heating” value is “approximately 40%”. Also, in series [3], the “[3H]5HT transport” value was “robust transport”.
